Five sequences from the supplement of paper PMC5998384 can be followed below.

Data set [1] relates to HeLa Kyoto. As to the kind of experiment: solubility in G1/S (NP-40 vs SDS abundance) (log2 ratio); higher = more soluble. The note with it: cell cycle stage: G1/S.
Data set [2] deals with HeLa Kyoto. As to the kind of experiment: melting temperature (median over replicates), in situ; higher = more thermally stable.
Data set [3] relates to HeLa Kyoto. As to the kind of experiment: thermal stability score vs G1/S (z-score of summed log2 fold changes over temperatures); higher = more thermally stable than in G1/S.
Data set [4] deals with HeLa Kyoto. Nature of the data set: solubility change mitosis vs G1/S (difference of NP-40 vs SDS log2 ratios) (log2 ratio difference); higher = more soluble in mitosis.
The mark [5] stands for this setting: cell cycle stage: early G1 (4.5 h after nocodazole release).
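Wherever melting temperature (median over replicates), in situ is given: HeLa Kyoto cells synchronized by double thymidine or nocodazole block, proteins quantified by TMT10plex mass spectrometry, three independent biological replicates.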
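Wherever solubility change mitosis vs G1/S (difference of NP-40 vs SDS log2 ratios) is given: synchronized HeLa Kyoto cells (double thymidine block for G1/S, nocodazole release for mitosis), protein amounts in NP-40 versus SDS lysates quantified by mass spectrometry, three biological replicates.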
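Wherever solubility in G1/S (NP-40 vs SDS abundance) is given: HeLa Kyoto cells arrested at G1/S by double thymidine block, proteins quantified by TMT10plex mass spectrometry in mild NP-40 versus SDS extracts, three biological replicates.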
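Wherever thermal stability score vs G1/S (z-score of summed log2 fold changes over temperatures) is given: synchronized HeLa Kyoto cells, proteins quantified by TMT10plex mass spectrometry, three biological replicates, mitosis taken 0.5 h after nocodazole release, G1/S directly after double thymidine block.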

For the sequence “MNIMNTEQSQNSIVSRIKVFEGQTNIETSGLPKKPEITPRSLPPKPTVSSGKPSVAPKPAANRASGEWDSGTENRLKVTSKEGLTPYPPLQEAGSIPVTKPELPKKPNPGLIRSVNPEIPGRGPLAESSDSGKKVPTPAPRPLLLKKSVSSENPTYPSAPLKPVTVPPRLAGASQAKAYKSLGEGPPANPPVPVLQSKPLVDIDLISFDDDVLPTPSGNLAEESVGSEMVLDPFQLPAKTEPIKERAVQPAPTRKPTVIRIPAKPGKCLHEDPQSPPPLPAEKPIGNTFSTVSGKLSNVERTRNLESNHPGQTGGFVRVPPRLPPRPVNGKTIPTQQPPTKVPPERPPPPKLSATRRSNKKLPFNRSSSDMDLQKKQSNLATGLSKAKSQVFKNQDPVLPPRPKPGHPLYSKYMLSVPHGIANEDIVSQNPGELSCKRGDVLVMLKQTENNYLECQKGEDTGRVHLSQMKIITPLDEHLRSRPNDPSHAQKPVDSGAPHAVVLHDFPAEQVDDLNLTSGEIVYLLEKIDTDWYRGNCRNQIGIFPANYVKVIIDIPEGGNGKRECVSSHCVKGSRCVARFEYIGEQKDELSFSEGEIIILKEYVNEEWARGEVRGRTGIFPLNFVEPVEDYPTSGANVLSTKVPLKTKKEDSGSNSQVNSLPAEWCEALHSFTAETSDDLSFKRGDRIQILERLDSDWCRGRLQDREGIFPAVFVRPCPAEAKSMLAIVPKGRKAKALYDFRGENEDELSFKAGDIITELESVDDDWMSGELMGKSGIFPKNYIQFLQIS [SH3D19]”, the “solubility in G1/S (log2)” value in data set [1] worked out at 0.173. The melting temperature in data set [2] (cell cycle stage: mitosis) amounted to 49 °C. The thermal stability score was 0.0615 in data set [3] (setting [5]) and -0.175 in data set [3] (cell cycle stage: mitosis). The “solubility change mitosis (log2)” value in data set [4] was -0.127.
“MNNQKQQKPTLSGQRFKTRKRDEKERFDPTQFQDCIIQGLTETGTDLEAVAKFLDASGAKLDYRRYAETLFDILVAGGMLAPGGTLADDMMRTDVCVFAAQEDLETMQAFAQVFNKLIRRYKYLEKGFEDEVKKLLLFLKGFSESERNKLAMLTGVLLANGTLNASILNSLYNENLVKEGVSAAFAVKLFKSWINEKDINAVAASLRKVSMDNRLMELFPANKQSVEHFTKYFTEAGLKELSEYVRNQQTIGARKELQKELQEQMSRGDPFKDIILYVKEEMKKNNIPEPVVIGIVWSSVMSTVEWNKKEELVAEQAIKHLKQYSPLLAAFTTQGQSELTLLLKIQEYCYDNIHFMKAFQKIVVLFYKAEVLSEEPILKWYKDAHVAKGKSVFLEQMKKFVEWLKNAEEESESEAEEGD [BZW1]”: the “solubility in G1/S (log2)” value in data set [1] worked out at 0.625. For the same sequence, the melting temperature was 49.3 °C in data set [2] (cell cycle stage: G1/S) and 48.8 °C in data set [2] (cell cycle stage: mitosis). For the same sequence, the thermal stability score in data set [3] (setting [5]) was 2.93; in data set [3] (cell cycle stage: mitosis), 6.17. In addition, the “solubility change mitosis (log2)” value in data set [4] was -0.105.
On to “MNNSGADEIGKLFVGGLDWSTTQETLRSYFSQYGEVVDCVIMKDKTTNQSRGFGFVKFKDPNCVGTVLASRPHTLDGRNIDPKPCTPRGMQPERTRPKEGWQKGPRSDNSKSNKIFVGGIPHNCGETELREYFKKFGVVTEVVMIYDAEKQRPRGFGFITFEDEQSVDQAVNMHFHDIMGKKVEVKRAEPRDSKSQAPGQPGASQWGSRVVPNAANGWAGQPPPTWQQGYGPQGMWVPAGQAIGGYGPPPAGRGAPPPPPPFTSYIVSTPPGGFPPPQGFPQGYGAPPQFSFGYGPPPPPPDQFAPPGVPPPPATPGAAPLAFPPPPSQAAPDMSKPPTAQPDFPYGQYAGYGQDLSGFGQGFSDPSQQPPSYGGPSVPGSGGPPAGGSGFGRGQNHNVQGFHPYRR [DAZAP1]”, for which the “solubility in G1/S (log2)” value in data set [1] turned out to be 0.412. Further, the figures for the melting temperature in data set [2] (cell cycle stage: G1/S) and in data set [2] (cell cycle stage: mitosis) were 53.6 °C and 53.7 °C, respectively. The thermal stability score was -1.35 in data set [3] (setting [5]) and -1.24 in data set [3] (cell cycle stage: mitosis). Moreover, the “solubility change mitosis (log2)” value in data set [4] is -0.0921.
“MNNSLENTISFEEYIRVKARSVPQHRMKEFLDSLASKGPEALQEFQQTATTTMVYQQGGNCIYTDSTEVAGSLLELACPVTTSVQPQTQQEQQIQVQQPQQVQVQVQVQQSPQQVSAQLSPQLTVHQPTEQPIQVQVQIQGQAPQSAAPSIQTPSLQSPSPSQLQAAQIQVQHVQAAQQIQAAEIPEEHIPHQQIQAQLVAGQSLAGGQQIQIQTVGALSPPPSQQGSPREGERRVGTASVLQPVKKRKVDMPITVSYAISGQPVATVLAIPQGQQQSYVSLRPDLLTVDSAHLYSATGTITSPTGETWTIPVYSAQPRGDPQQQSITHIAIPQEAYNAVHVSGSPTALAAVKLEDDKEKMVGTTSVVKNSHEEVVQTLANSLFPAQFMNGNIHIPVAVQAVAGTYQNTAQTVHIWDPQQQPQQQTPQEQTPPPQQQQQQLQVTCSAQTVQVAEVEPQSQPQPSPELLLPNSLKPEEGLEVWKNWAQTKNAELEKDAQNRLAPIGRRQLLRFQEDLISSAVAELNYGLCLMTREARNGEGEPYDPDVLYYIFLCIQKYLFENGRVDDIFSDLYYVRFTEWLHEVLKDVQPRVTPLGYVLPSHVTEEMLWECKQLGAHSPSTLLTTLMFFNTKYFLLKTVDQHMKLAFSKVLRQTKKNPSNPKDKSTSIRYLKALGIHQTGQKVTDDMYAEQTENPENPLRCPIKLYDFYLFKCPQSVKGRNDTFYLTPEPVVAPNSPIWYSVQPISREQMGQMLTRILVIREIQEAIAVANASTMH [QRICH1]”: the “solubility in G1/S (log2)” value in data set [1] was found to be 0.184. The melting temperature was 47 °C in data set [2] (cell cycle stage: G1/S) and 49.3 °C in data set [2] (cell cycle stage: mitosis). Besides, the thermal stability score in data set [3] (setting [5]) was 3.16; in data set [3] (cell cycle stage: mitosis) it was 5.23. Further, the “solubility change mitosis (log2)” value in data set [4] is -0.197.
As to “MNPEKDFAPLTPNIVRALNDKLYEKRKVAALEIEKLVREFVAQNNTVQIKHVIQTLSQEFALSQHPHSRKGGLIGLAACSIALGKDSGLYLKELIEPVLTCFNDADSRLRYYACEALYNIVKVARGAVLPHFNVLFDGLSKLAADPDPNVKSGSELLDRLLKDIVTESNKFDLVSFIPLLRERIYSNNQYARQFIISWILVLESVPDINLLDYLPEILDGLFQILGDNGKEIRKMCEVVLGEFLKEIKKNPSSVKFAEMANILVIHCQTTDDLIQLTAMCWMREFIQLAGRVMLPYSSGILTAVLPCLAYDDRKKSIKEVANVCNQSLMKLVTPEDDELDELRPGQRQAEPTPDDALPKQEGTASGGPDGSCDSSFSSGISVFTAASTERAPVTLHLDGIVQVLNCHLSDTAIGMMTRIAVLKWLYHLYIKTPRKMFRHTDSLFPILLQTLSDESDEVILKDLEVLAEIASSPAGQTDDPGPLDGPDLQASHSELQVPTPGRAGLLNTSGTKGLECSPSTPTMNSYFYKFMINLLKRFSSERKLLEVRGPFIIRQLCLLLNAENIFHSMADILLREEDLKFASTMVHALNTILLTSTELFQLRNQLKDLKTLESQNLFCCLYRSWCHNPVTTVSLCFLTQNYRHAYDLIQKFGDLEVTVDFLAEVDKLVQLIECPIFTYLRLQLLDVKNNPYLIKALYGLLMLLPQSSAFQLLSHRLQCVPNPELLQTEDSLKAAPKSQKADSPSIDYAELLQHFEKVQNKHLEVRHQRSGRGDHLDRRVVL [VAC14]”, the “solubility in G1/S (log2)” value in data set [1] came out at 0.0329. The melting temperature in data set [2] (cell cycle stage: G1/S) came out at 53.3 °C; in data set [2] (cell cycle stage: mitosis), 53.9 °C. Moreover, the values for the thermal stability score in data set [3] (setting [5]) and in data set [3] (cell cycle stage: mitosis) were -1.83 and -1.68, respectively. Further, in data set [4], the “solubility change mitosis (log2)” value is -0.133.
